This is an account of results in paper PMC5090061.

Positions count from the first letter of the chain named. Names and notes keep the numbering of the source.

The chains are these.
B1: Full-length human MCAK-his6-EGFP (wild type) (natural protein)
chain: MAMDSSLQARLFPGLAIKIQRSNGLIHSANVRTVNLEKSCVSVEWAEGGATKGKEIDFDDVAAINPELLQLLPLHPKDNLPLQENVTIQKQKRRSVNSKIPAPKESLRSRSTRMSTVSELRITAQENDMEVELPAAANSRKQFSVPPAPTRPSCPAVAEIPLRMVSEEMEEQVHSIRGSSSANPVNSVRRKSCLVKEVEKMKNKREEKKAQNSEMRMKRAQEYDSSFPNWEFARMIKEFRATLECHPLTMTDPIEEHRICVCVRKRPLNKQELAKKEIDVISIPSKCLLLVHEPKLKVDLTKYLENQAFCFDFAFDETASNEVVYRFTARPLVQTIFEGGKATCFAYGQTGSGKTHTMGGDLSGKAQNASKGIYAMASRDVFLLKNQPCYRKLGLEVYVTFFEIYNGKLFDLLNKKAKLRVLEDGKQQVQVVGLQEHLVNSADDVIKMIDMGSACRTSGQTFANSNSSRSHACFQIILRAKGRMHGKFSLVDLAGNERGADTSSADRQTRMEGAEINKSLLALKECIRALGQNKAHTPFRESKLTQVLRDSFIGENSRTCMIATISPGISSCEYTLNTLRYADRVKELSPHSGPSGEQLIQMETEEMEACSNGALIPGNLSKEEEELSSQMSSFNEAMTQIRELEEKAMEELKEIIQQGPDWLELSEMTEQPDYDLETFVNKAESALAQQAKHFSALRDVIKALRLAMQLEEQASRQISSKKRPQ
B2: Full-length human MCAK-his6-EGFP E525A (natural protein)
chain: B1 chain with E525A
B3: Full-length human MCAK-his6-EGFP R528A (natural protein)
chain: B1 chain with R528A
B4: Full-length human MCAK-his6-EGFP K524A (natural protein)
chain: B1 chain with K524A

For one assay, the target named is Unpolymerized GDP-tubulin (porcine brain) (porcine) (UniProt P02550).
Sequence of UniProt P02550 (P02550 whole entry, looked up): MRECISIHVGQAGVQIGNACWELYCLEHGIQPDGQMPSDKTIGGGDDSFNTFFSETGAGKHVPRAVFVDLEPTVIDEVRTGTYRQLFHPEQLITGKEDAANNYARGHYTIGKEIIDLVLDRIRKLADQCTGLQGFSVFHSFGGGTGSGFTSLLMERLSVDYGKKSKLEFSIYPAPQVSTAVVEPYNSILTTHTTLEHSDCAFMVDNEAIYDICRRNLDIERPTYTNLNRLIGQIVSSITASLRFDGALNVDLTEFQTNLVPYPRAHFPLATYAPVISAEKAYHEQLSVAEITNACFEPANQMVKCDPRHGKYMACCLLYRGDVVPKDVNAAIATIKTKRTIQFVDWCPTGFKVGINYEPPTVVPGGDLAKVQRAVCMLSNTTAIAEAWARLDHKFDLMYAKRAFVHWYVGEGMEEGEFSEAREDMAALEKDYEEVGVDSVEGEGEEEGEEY
Assay: not given
Regarding B1, the tubulin-stimulated ATPase (0.1 µM MCAK, 10 µM unpolymerized GDP-tubulin) is 0.204 s⁻¹.

As for B2, the tubulin-stimulated ATPase (0.1 µM MCAK, 10 µM unpolymerized GDP-tubulin) was determined as 0.195 s⁻¹.

In turn, B3 gave a tubulin-stimulated ATPase (0.1 µM MCAK, 10 µM unpolymerized GDP-tubulin) of 0.205 s⁻¹.

Molecule B4 displayed a tubulin-stimulated ATPase (0.1 µM MCAK, 10 µM unpolymerized GDP-tubulin) of 0.184 s⁻¹.

The next assay has as its target GMPCPP-stabilized microtubules of porcine brain tubulin (porcine) (UniProt P02550).
Assay: not given
Take B1: the depolymerization rate of individual GMPCPP microtubules with 40 nM MCAK came out at 2.12 μm min^−1 and the microtubule-stimulated ATPase (0.1 µM MCAK, 10 µM GMPCPP-stabilized microtubules) came to 3.16 s⁻¹.

The molecule B2 showed a depolymerization rate of individual GMPCPP microtubules with 40 nM MCAK of 0.1 μm min^−1 and a microtubule-stimulated ATPase (0.1 µM MCAK, 10 µM GMPCPP-stabilized microtubules) of 0.16 s⁻¹.

Turning to B3, the depolymerization rate of individual GMPCPP microtubules with 40 nM MCAK came to 0.29 μm min^−1 and the microtubule-stimulated ATPase (0.1 µM MCAK, 10 µM GMPCPP-stabilized microtubules) was found to be 0.66 s⁻¹.

In the case of B4, the depolymerization rate of individual GMPCPP microtubules with 40 nM MCAK was determined as 0.13 μm min^−1 and the microtubule-stimulated ATPase (0.1 µM MCAK, 10 µM GMPCPP-stabilized microtubules) was 0.72 s⁻¹.

Another assay has the same target. In words: single-molecule TIRF microscopy; rhodamine-labelled GMPCPP-stabilized microtubules stuck onto the flow-chamber surface; 1–6 nM MCAK-GFP or GFP-labelled mutant in BRB20 pH 6.9, 75 mM KCl, 1 mM ATP, 0.05% Tween 20, 0.1 mg/ml BSA; 25°C; duration of GFP events at the microtubule end and on the lattice measured from kymographs.
B1 had a microtubule-end residence time of 2.03 s and a percent of microtubule end interaction events longer than 2 s of 31.5%.

B2 gave a microtubule-end residence time of 0.59 s and a percent of microtubule end interaction events longer than 2 s of 0.9%.

As to B3, the microtubule-end residence time worked out at 0.65 s and the percent of microtubule end interaction events longer than 2 s was found to be 0%.

The molecule B4 displayed a microtubule-end residence time of 0.59 s and a percent of microtubule end interaction events longer than 2 s of 0%.
